Experimental findings from patent publication US7786356B2, “Method for the production of calendic acid, a fatty acid containing delta 8,10,12 conjugated double bonds and related fatty acids having a modification at the delta 9 position” (E.I. du Pont de Nemours and Company, priority 1999, dated 2010) are described below.

Holding throughout (type): cell-based
The test system of experiment [1] is Saccharomyces cerevisiae INVSc1 cells. Description: Expression of CalFad2-1 and CalFad2-2 in Saccharomyces cerevisiae. The conditions noted are these: cells grown in media containing 2 mM linoleic acid, 4 days at 16° C.; (w/w) of total fatty acids. From the text: The Calendula officinalis clones CalFad2-1 and CalFad2-2 were digested with the restriction enzymes EcoRI and XhoI. The resulting DNA fragments containing the entire cDNA inserts were purified by agarose gel electrophoresis. The purified cDNAs were ligated into the EcoRI and XhoI sites of the Saccharomyces cerevisiae expression vector pYES2 (Invitrogen) using T4 DNA ligase (New England Biolabs). The resulting plasmids pYes2/CalFad2-1 and pYes2/CalFad2-2 were introduced into Saccharomyces cerevisiae INVSc1 (Invitrogen Corp.) cells by lithium acetate-mediated transformation [Sherman F, Fink G R, Hicks J B, Methods in Yeast Genetics: A Laboratory Course Manual, Cold Spring Harbor Lab. Press, Plainview, N.Y. (1987)]. Transformed cells were selected for their ability to grow in the absence of uracil. […] In cells grown in media containing linoleic acid, calendic acid (18:3Δ^8trans,10trans,12cis) was detected in amounts of up to 2.9% (w/w) of the total fatty acids of cultures expressing CalFad2-1 (FIG. 3) and in amounts of up to 0.2% of the total fatty acids of cultures expressing CalFad2-2. […] No calendic acid was detected in cultures harboring the expression vector without a cDNA insert or in cells grown in the absence of exogenous linoleic acid. […]

Experiment [2] has as its system somatic soybean embryos. Description: Production of calendic acid in somatic soybean embryos expressing CalFad2-1 or CalFad2-2. Particulars: single somatic embryos. From the text:
The open-reading frames of these cDNAs were amplified by PCR in order generate the appropriate flanking restriction enzyme sites for cloning into the soybean expression vector. The oligonucleotide primers used for amplification of the CalFad2-1 open-reading frame were: 5′-ttgcggccgc[…]-3′ (sense, SEQ ID NO:18) and 5′-ttgcggccg[…]-3′ (antisense, SEQ ID NO:19). The oligonucleotide primers used for amplification of the CalFad2-2 coding sequence were: 5′-agcggccgcTATACCATGGGCAAG-3′ (sense, SEQ ID NO:20) and 5′-tgcggccgcTATGTTAAACTTC-3′ (antisense, SEQ ID NO:21). [Note: The sequences shown in lower case contain an added NotI site along with additional bases to facilitate restriction enzyme digestion.] The template was the cDNA corresponding to either EST ecs1c.pk009.n14 (CalFad2-1) or EST ecs1c.pk08.a24 (CalFad2-2), and Pfu polymerase (Stratagene) was used for the amplification reactions. The resulting PCR products were subcloned into the intermediate vector pCR-Script AMP SK(+) (Stratagene) according to the manufacturer's protocol. The amplified CalFad2-1 and CalFad2-2 coding sequences were then released with NotI digestion and then subcloned into the corresponding site of the soybean expression vector pKS67.
The PCR amplified coding sequences of CalFad2-1 and CalFa2-2 were fused with the β-conglycinin promoter and phaseolin termination sequences in vector pKS67 was transformed into somatic soybean embryos as follows. To induce somatic embryos, cotyledons, 3-5 mm in length dissected from surface sterilized, immature seeds of a soybean cultivar A2872 or JACK-910 were cultured in the light or dark at 26° C. on an appropriate agar medium for 6-10 weeks. Somatic embryos that produce secondary embryos were then excised and placed into a suitable liquid medium. After repeated selection for clusters of somatic embryos that multiplied as early, globular staged embryos, the suspensions were maintained as described below.
Soybean embryogenic suspension cultures were maintained in 35 mL liquid media on a rotary shaker, 150 rpm, at 26° C. with florescent lights on a 16:8 hour day/night schedule. Cultures were subcultured every two weeks by inoculating approximately 35 mg of tissue into 35 mL of liquid medium.
Soybean embryogenic suspension cultures were then transformed with the vector pKS67 containing the coding sequence for CalFad2-1 and CalFad2-2 by the method of particle gun bombardment (Klein et al. (1987) Nature (London) 327:70, U.S. Pat. No. 4,945,050). A Du Pont Biolisticä PDS1000/HE instrument (helium retrofit) was used for these transformations.
To […] of a 60 mg/mL […] gold particle suspension were added (in order): 5 mL DNA (1 mg/mL), 20 ml spermidine (0.1 M), and […] CaCl2 (2.5 M). The particle preparation was then agitated for three minutes, spun in a microfuge for 10 seconds and the supernatant removed. The DNA-coated particles were then washed once in 400 mL 70% ethanol and resuspended in 40 mL of anhydrous ethanol. The DNA/particle suspension was sonicated three times for one second each. Five mL of the DNA-coated gold particles was then loaded on each macro carrier disk.
Approximately 300-400 mg of a two-week-old suspension culture was placed in an empty 60×15-mm petri dish and the residual liquid removed from the tissue with a pipette. For each transformation experiment, approximately 5 to 10 plates of tissue were bombarded. Membrane rupture pressure was set at 1100 psi and the chamber was evacuated to a vacuum of 28 inches mercury. The tissue was placed approximately 3.5 inches away from the retaining screen and bombarded three times. Following bombardment, the tissue was divided in half and placed back into liquid and cultured as described above.
Five to seven days post bombardment, the liquid media was exchanged with fresh media, and eleven to twelve days post bombardment with fresh media containing […] hygromycin. This selective media was refreshed weekly. […]

The test system of experiment [3] is somatic soybean embryos. Description: Production of dimorphecolic acid in transgenic somatic soybean embryos expressing DMFad2-1 and/or DMFad2-2. The text has this:
Initially, the open-reading frames of cDNAs for DMFad2-1 and DMFad2-2 were amplified by PCR using Pfu polymerase (Stratagene) to generate the appropriate restriction enzyme sites for cloning into the soybean expression vector. For amplification of the open-reading frame of the DMFad2-1 cDNA, EST dms2c.pk006.d7 (SEQ ID NO: 10 for the nucleotide sequence, and SEQ ID NO:11 for the polypeptide translation product) was used as the template, and the oligonucleotide primers were: 5′-tatgcggccgcAAATGGGAGCAGGAGGTTG-3′ (sense, SEQ ID NO:22) and 5′-tttgcggccgc[…]-3′ (antisense, SEQ ID NO:23). For amplification of the open-reading frame of the DMFad2-2 cDNA, EST dms2c.pk001.113 (SEQ ID NO:12 for the nucleotide sequence, and SEQ ID NO:13 for the polypeptide translation product) was used as the template, and the oligonucleotide primers were: 5′-tgcggccgc[…]-3′ (sense, SEQ ID NO:24) and 5′-tagcggccgcTGATTAATCAAGTCTTAG-3′ (antisense, SEQ ID NO:25). The nucleotides shown in lower case are not Dimorphotheca sequences, but instead encode an added NotI site along with additional bases to facilitate restriction enzyme digestion. The resulting PCR products were subcloned into the intermediate vector pCR-Script AMP SK(+) (Stratagene) according to the manufacturer's protocol. […]
The expression constructs containing the DMFad2-1 and DMFad2-2 coding sequences in vector pKS67 were transformed into somatic soybean embryos using the biolistic method as described in Example 10. […] The fatty acid compositions of the resulting transgenic soybean embryos were then assessed for the presence of novel fatty acid structures. […] The resulting transgenic soybean embryos selected for hygromycin resistance were analyzed for alterations in fatty acid content relative to untransformed embryos. […] The recovered fatty acid methyl esters and derivatives were then analyzed using a Hewlett-Packard 6890 chromatograph fitted with an Omegawax 320 column (30 m×0.32 mm inner diameter; Supelco). […] Fatty acid methyl esters were also analyzed by GC-MS an HP6890 interfaced with a HP5973 (Hewlett-Packard) mass selective detector. […]

The mark [4] stands for this setting: n = 5, ± standard deviation, weight % of total fatty acids.

B1: CalFad2-2: Calendula officinalis fatty acid modifying enzyme (cDNA SEQ ID NO:3, protein SEQ ID NO:4) forming conjugated double bonds at delta-9 position (protein, listed as Calendula officinalis)
chain: MGKAASAKKVLERVPISKPPFEYNDLKKAVPPHCFSRPLSRSLYFLFHDIIVTCILFYVASNYIHMLPRFLSCIVWPVYWISQGVFLGRLWMIGHECGHHSFSNYRWVDDTVGFLIHTATLTPYFSFKYSHRNHHAHTNSMEYDEVHIPKRKSEALYFEFLGNNPIGLMITMLCKLTFGYAAYIMFNYTGKKHKSGGLASHFYPQSPLFNDSERNHVLFSDIGICIVLYACYRIVTVTGAMPAFYVYGIPWVIMSAILFAATYLQHTHPSIPHYDTTEWNWLRGALSTIDRDLGFFNMNKTHYHVIHHLFPVIPEYHAQEATEAIKPILGQYYKYDGTPFLKALWREMKECIYVESDEGQKKQGIYWFKNKT
Turning to B1, the “calendic acid (18:3Δ8trans,10trans,12cis), amount of the total fatty acids” value in experiment [1] was “up to 0.2%”. Also, the “Other, Fatty Acid Weight %” value in experiment [2] (n = 5, weight % of total fatty acids) was “≦1.7 Weight %”. In experiment [2] (setting [4]), the “16:0, Fatty Acid Weight %” value worked out at 12.3 ± 1.1 Weight %; the “18:0, Fatty Acid Weight %” value worked out at 3.3 ± 0.5 Weight %; the “18:1, Fatty Acid Weight %” value is listed as 8.6 ± 2.1 Weight %; the “18:2, Fatty Acid Weight %” value is recorded as 38.2 ± 3.4 Weight %. Further, in experiment [2] (setting [4]), the “18:3, Fatty Acid Weight %” value is on record as 17.7 ± 3.5 Weight % and the “Calendic Acid, Fatty Acid Weight %” value amounted to 18.1 ± 3.6 Weight %.

B2: DMFad2-2: Dimorphotheca sinuata Δ-9 hydroxy-conjugase (SEQ ID NO:12/13) converting trans-linoleic acid to dimorphecolic acid (protein, listed as Dimorphotheca sinuata)
chain: MGASEEMKVLERVPVSKPPFEYNDLKKAVPPHCFTRSLSLSFYYLFYDLIKVCILFYVASKYIPMLPYSLSCIVWPLYWFFQGAFLGRLWMIGHECGHHSFSNYRWLDDTVGFLVHTATLTPYFSFKYSHRNHHAHTNSLEYDEVHVPKIRKFKSEHLYSEFLTNNPFGLVVNMVFELTFGYPSYLIFNYSGRKLTQAGFASHLYPQSPIFNDSERNHVFFSDVGICIVLYALYRIAIAKGAMLVLYVYGLPWVVMSAFIFSLTYLQHTHPSIPHYDSTEWNWLRGALSSIDRELAGAFNIKKTHYHVVHHLFPFIPEYHAHDATEALKPILGPYYKYDGTPFYKALWREMKDCLYVESDDGPNKTGVYWFKTKT
Regarding B2, the dimorphecolic acid accumulation entry in experiment [3] ("DMFad2-2 alone" transformants) is reported as “less than 0.1%”. Also, in experiment [3] (embryo extracts of FIG. 9 panels B and C), the “18:2Δ9cis,12trans in extracts of somatic soybean embryos (FIG. 9)” value was “lacked detectable amounts”. The “dimorphecolic acid isomers, share of the total fatty acids” value in experiment [3] (experiment MSE 229, GC-MS selected ion 225 m/z) is on record as below 0.1%.
